In this assay the target is T1, Recombinant human ASF1AN (residues 1 to 156) (human, UniProt Q9Y294 1-156).
T1 construct: N-terminal domain of human ASF1A, UniProt Q9Y294, residues 1 to 156; Unlabeled for ITC; uniformly 15N- and/or 15N-13C-labeled for NMR; Made from pETM30 with a TEV cleavage site; also called hASF1AN; 15N-ASF1AN; source: E. coli, purified (glutathione agarose, TEV cleavage, Ni-NTA flow-through, Resource Q); not shown: His6, N-terminal, cleaved; GST, N-terminal, cleaved
As to the kind of experiment: ITC; VP-ITC, 20 °C, 50 mM tris-HCl pH 7.5; binder injected into the ASF1 solution; One Set of Sites model; duplicate. As to conditions: both partners purified. (Isothermal titration calorimetry measures the heat released or taken up as one component is titrated into another.)

T1 sequence (Q9Y294 1-156): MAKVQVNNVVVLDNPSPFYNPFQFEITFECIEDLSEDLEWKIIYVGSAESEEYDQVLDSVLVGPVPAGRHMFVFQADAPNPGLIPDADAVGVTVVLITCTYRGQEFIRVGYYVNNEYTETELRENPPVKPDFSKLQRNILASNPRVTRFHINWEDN

B1: ip4_mutG (peptide)
peptide: WARLARRTAGAGGVTLNGAG
notes: also called constant C-terminal scaffold
Turning to B1, the Kd turned out to be 10600 ± 1000 nM.

B2: Kan[348]_top1 (SAAARWAAALAALP-GSK-ip4_mutG), purified peptide (designed binder)
peptide: SAAARWAAALAALPGSKWARLARRTAGAGGVTLNGAG
notes: designed N-terminal extension; linker; ip4_mutG; source: E. coli BL21(DE3) Star, purified (Ni-NTA, SUMO protease, Resource RPC, Superdex 30); not shown: His6, N-terminal, cleaved; SUMO, N-terminal, cleaved
Regarding B2, the Kd worked out at 235 ± 26 nM.

B3: T32_Kan[209]_top1 (AEEEAARFAALLAALP-GSK-ip4_mutG), purified peptide (designed binder)
peptide: AEEEAARFAALLAALPGSKWARLARRTAGAGGVTLNGAG
notes: as for B2
For the molecule B3, the Kd was 152 ± 25 nM.

B4: Kan[348]_top2 (AAAERARFAALLAKLP-GSK-ip4_mutG), purified peptide (designed binder)
peptide: AAAERARFAALLAKLPGSKWARLARRTAGAGGVTLNGAG
notes: as for B2
Take B4: the dissociation constant (Kd) was 581 ± 98 nM.

The Kd is the free concentration of one partner at which half of the binding sites on the other are occupied at equilibrium, for simple one-to-one binding.

These data come from publication PMC13199644, “Optimized Quantitative Bacterial Two-Hybrid (qB2H) for Protein–Protein Interaction Assessment” (Computational and Structural Biotechnology Journal, 2026).
